The text below walks through data of patent publication US20070134221A1 (published 2007).

Common to all, as to assay: cell-based or functional assay
Assay [1] concerns the target envelope glycoprotein of virus isolate HIV-1 DJ258 (HIV-1 DJ258).
For assay [2], the target named is envelope glycoprotein of virus isolate HIV-1 94ZW103 (HIV-1 94ZW103).
The target of assay [3] is envelope glycoprotein of virus isolate HIV-1 UG270 (HIV-1 UG270).
The target in assay [4] is envelope glycoprotein of virus isolate HIV-1 NL4-3 (HIV-1 NL4-3).
In assay [5] the target is envelope glycoprotein of virus isolate HIV-1 Case C 7/86 (HIV-1 Case C 7/86).
The target in assay [6] is envelope glycoprotein of virus isolate HIV-1 JFRL (HIV-1 JFRL).
Assay [7] has as its target envelope glycoprotein of virus isolate HIV-1 CM.235 (HIV-1 CM.235).
Assay [8] addresses envelope glycoprotein of virus isolate HIV-1 BZ162 (HIV-1 BZ162).

Changes are numbered by the printed parent chain. Numbers in names are those of the source.

B1: C52F peptide (peptide)
peptide: NHTTWMEWDREINNYTSLIHSLIEESQNLQEKNEQELLELDKWASLWNWFNIKIK
As to B1, the “IC50 (nM), Human PBMC Infectivity Assays” value worked out at 9 nM in assay [1]; 4 nM in assay [2]; 68 nM in assay [3]; 23 nM in assay [4]; 49 nM in assay [5]; 5 nM in assay [6]. For the same molecule, the “IC50 (nM), Human PBMC Infectivity Assays” value stood at 11 nM in assay [7] and 2 nM in assay [8].

B2: C52L peptide (peptide)
peptide: B1 peptide with I23F, N33A, L38F
Turning to B2, the “IC50 (nM), Human PBMC Infectivity Assays” value stood at 11 nM in assay [1]; 3 nM in assay [2]; 61 nM in assay [3]; 20 nM in assay [4]; 17 nM in assay [5]; 6 nM in assay [6]. Also, the “IC50 (nM), Human PBMC Infectivity Assays” value in assay [8] came to 3 nM.
